From patent publication US20250060376A1 (PLASMARKER BIOTECHNOLOGY, published 2025)

Biological target: T1, GluA1 (mouse (hippocampus of DIR-KI mice), UniProt P23818 19-907, limits assumed)
T1 construct: Endogenous protein in tissue sections (PLA assay)
Test: PLA assay in hippocampus (FIG. 20E)

T1 sequence (P23818 19-907 limits assumed): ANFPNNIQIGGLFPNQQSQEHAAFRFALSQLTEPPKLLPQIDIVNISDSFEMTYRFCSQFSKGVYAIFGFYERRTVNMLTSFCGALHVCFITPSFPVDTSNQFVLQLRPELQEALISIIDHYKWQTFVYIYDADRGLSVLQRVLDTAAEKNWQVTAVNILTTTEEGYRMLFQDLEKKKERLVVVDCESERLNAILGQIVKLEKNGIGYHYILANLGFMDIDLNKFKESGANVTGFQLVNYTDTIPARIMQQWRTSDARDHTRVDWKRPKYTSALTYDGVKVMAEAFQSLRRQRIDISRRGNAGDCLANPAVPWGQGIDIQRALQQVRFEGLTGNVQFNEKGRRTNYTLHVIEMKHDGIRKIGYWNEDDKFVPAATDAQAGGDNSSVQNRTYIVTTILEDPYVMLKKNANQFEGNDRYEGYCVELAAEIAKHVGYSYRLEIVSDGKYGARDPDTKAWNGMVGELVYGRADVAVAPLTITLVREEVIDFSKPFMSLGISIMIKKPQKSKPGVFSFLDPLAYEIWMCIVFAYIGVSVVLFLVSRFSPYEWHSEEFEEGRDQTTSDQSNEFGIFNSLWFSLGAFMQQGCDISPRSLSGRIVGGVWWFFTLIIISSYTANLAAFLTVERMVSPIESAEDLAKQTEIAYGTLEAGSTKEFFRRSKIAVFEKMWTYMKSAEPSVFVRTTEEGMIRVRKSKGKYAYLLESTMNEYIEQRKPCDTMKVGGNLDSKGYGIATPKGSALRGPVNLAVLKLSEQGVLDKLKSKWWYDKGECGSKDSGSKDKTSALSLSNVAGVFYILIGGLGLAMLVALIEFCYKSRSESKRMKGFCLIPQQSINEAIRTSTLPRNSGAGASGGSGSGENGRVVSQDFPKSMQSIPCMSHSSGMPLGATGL

B1: DNA damage-inducible transcript 4-like (DDIT4L) intron retention spliced product (DIR) protein (other)
chain: MVATGSLSSKNPASISELLDCGYHPESLLSGECPRCPPFSPPKVGASGSIGWAGFRLPPLPLCRRCHKIHLRRLLSKFSNIFSP
notes: 84 aa spliced product peptide; also called QDLIR; human DIR
B1: binds.
